Measured values: article PMC6118821

Molecular target: Nucleosome with symmetrical linkers of 14 base pairs (nucleosome of the 2Chd1:1Nucleosome complex) (Xenopus laevis)
Test: cryo-EM structure; 2:1 complex of ScChd1(1-1305Δ57–88) and a nucleosome with symmetrical 14 bp linkers, ADP-BeFx; envelope at 10-11 Å, two Chd1 and a nucleosome rigid-body docked

Q: How did the stoichiometry N turn out when “ScChd1(1-1305Δ57–88) (from UniProt P32657 1-1305) (enzyme)” was run?
A: 2
